The assay has as its target HLA-A*02:01 on T2 cells (human (endogenous in T2)). As to the kind of experiment: flow cytometry on cells.

Take VIIKPLVWV [p55 peptide … from APCS]: the time for which complexes with HLA-A*02:01 lasted is greater than 4 h.
Consider LTLLGTLWGA [p34 peptide … from PCDHGA6], for which the time for which complexes with HLA-A*02:01 lasted is greater than 4 h.
Molecule FLGPWPAAS [p14 peptide … from the LRPAP1 signal peptide] yielded a time for which complexes with HLA-A*02:01 lasted greater than 4 h.
The molecule SVLWLGALGL [p35 peptide … from C20orf141] returned a time for which complexes with HLA-A*02:01 lasted greater than 4 h.

For the origin of these results see paper PMC6122969.
